Source: the supplement of paper PMC10126150
± gives the standard deviation of the averaged measurements.

System: ATP
Assay: switch fluorescence ratio, 500 uM ATP over buffer (Cy3 cluster intensity, sum of 5 cycles each) (fold (ratio)); higher = stronger signal-on switching upon ATP binding; sequences stand for … in TCGTCGGCAGCGTCAGATGTGTATAAGAGACAGTTTTTTTTTTTTTTTTTTTTTTTTT…TC
Settings: aptamer strand: ATP DNA aptamer (quencher-CACCTGGGGGAGTATTGCGGAGGAAGG + anchor), 100 nM annealed; ATP concentration: 500 uM
Outline: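 Switching-strand clusters labelled with Cy3 on a modified Illumina MiSeq flow-cell were annealed to 100 nM quencher-labelled ATP aptamer, imaged in selection buffer, and re-imaged after 15 min with 500 uM ATP at 22 °C. This was done over five cycles with NaOH stripping and re-annealing in between. The fluorescence ratio is summed target-cycle over summed buffer-cycle Cy3 intensity per cluster, averaged per switch-domain sequence, excluding clusters outside 100-1000 RFU.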
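Note: ATP exposure 15 min at 22 °C before imaging.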

Row | Sequence | switch fluorescence ratio
1 | CTTTGGGGAT | 1.05 ± 0.12
2 | CTTTGGTGTC | 1.01 ± 0.029
3 | CTTTGGTGTT | 1.01 ± 0.017
4 | CTTTGTCAGT | 0.979 ± 0.03
5 | CTTTGTTATG | 0.9909 ± 0.0047
6 | CTTTGTTGGT | 0.9831 ± 0.0082
7 | CTTTGTTTTT | 0.9893 ± 0.0089
8 | CTTTTACCGG | 1.04 ± 0.013
9 | CTTTTAGGGG | 1.01 ± 0.012
10 | CTTTTGCGCA | 1.007 ± 0.0079
11 | CTTTTGGCCT | 1.03 ± 0.038
12 | CTTTTGGTTT | 0.975 ± 0.032
13 | CTTTTTGTTT | 1.01 ± 0.041
14 | CTTTTTTGGG | 1.01 ± 0.014
15 | CTTTTTTTTG | 0.993 ± 0.017
16 | GAAAAAACAC | 1.16 ± 0.1
17 | GAAAAAATGG | 1.15 ± 0.26
18 | GAAAAAGAGG | 0.985 ± 0.019
19 | GAAAAAGATT | 0.999 ± 0.017
20 | GAAAAAGCGG | 1.04 ± 0.015
21 | GAAAAAGGCA | 0.974 ± 0.033
22 | GAAAAAGGCC | 1.02 ± 0.011

Row | Sequence | switch fluorescence ratio
23 | GAAAAATGAC | 0.999 ± 0.021
24 | GAAAACAGTT | 0.9951 ± 0.0053
25 | GAAAACGAAT | 1.07 ± 0.14
26 | GAAAAGATTG | 0.972 ± 0.024
27 | GAAAAGGGGG | 0.992 ± 0.053
28 | GAAACAGACA | 1.08 ± 0.035
29 | GAAACATTGG | 1.0357 ± 0.00021
30 | GAAACCGTGG | 1.06 ± 0.019
31 | GAAACGAATT | 1.02 ± 0.018
32 | GAAACTTGTG | 0.963 ± 0.025
33 | GAAAGAGGGT | 1.03 ± 0.035
34 | GAAAGATACC | 1.03 ± 0.043
35 | GAAAGCGGTG | 1.01 ± 0.015
36 | GAAAGGAAAA | 0.975 ± 0.016
37 | GAAAGGCGAG | 1.11 ± 0.053
38 | GAAAGGGAAA | 1.03 ± 0.032
39 | GAAAGGGCTG | 1.05 ± 0.087
40 | GAAAGGGGCC | 1.01 ± 0.066
41 | GAAAGGGGGC | 0.963 ± 0.041
42 | GAAAGGGTTA | 0.9898 ± 0.0085
43 | GAAAGTCTGT | 1.07 ± 0.087
44 | GAAAGTTCGA | 0.987 ± 0.01

Row | Sequence | switch fluorescence ratio
45 | GAAATAAAAT | 1 ± 0.024
46 | GAAATACCTT | 0.976 ± 0.0021
47 | GAAATACTCT | 1.44 ± 0.12
48 | GAAATAGGTA | 0.988 ± 0.013
49 | GAAATATCAT | 0.971 ± 0.018
50 | GAAATATGGC | 1.15 ± 0.062
51 | GAAATCACTC | 1.15 ± 0.13
52 | GAAATCGCCA | 1.022 ± 0.007
53 | GAAATCGGAT | 0.972 ± 0.016
54 | GAAATGATGG | 0.978 ± 0.0013
55 | GAAATGGGGG | 0.991 ± 0.028
56 | GAAATTAAGC | 1.06 ± 0.057
57 | GAAATTACAG | 0.994 ± 0.016
58 | GAAATTAGCC | 1.053 ± 0.0092
59 | GAAATTAGTT | 0.991 ± 0.018
60 | GAAATTATTA | 0.9919 ± 0.0075
61 | GAAATTGCAT | 0.996 ± 0.02
62 | GAAATTGGTT | 0.988 ± 0.067
63 | GAAATTTTGC | 0.995 ± 0.033
64 | GAACGGCTCG | 1.023 ± 0.0038
65 | GAACGTTGGG | 0.993 ± 0.033
66 | GAACTAGGTC | 1.01 ± 0.021

Row | Sequence | switch fluorescence ratio
67 | GAACTGATGT | 1 ± 0.018
68 | GAACTGTATG | 1.05 ± 0.056
69 | GAACTTCTGG | 0.985 ± 0.038
70 | GAACTTTTTA | 0.981 ± 0.011
71 | GAAGAAAATT | 1.01 ± 0.014
72 | GAAGAATGGT | 0.975 ± 0.013
73 | GAAGAATGTG | 1.01 ± 0.0082
74 | GAAGAGGGAT | 0.981 ± 0.049
75 | GAAGATACGG | 1.03 ± 0.032
76 | GAAGATTTCT | 0.976 ± 0.03
77 | GAAGCTAGAA | 1.52 ± 0.3
78 | GAAGGAAAAG | 0.992 ± 0.099
79 | GAAGGATAGC | 0.998 ± 0.018
80 | GAAGGATAGG | 0.975 ± 0.029
81 | GAAGGCCCGG | 0.99 ± 0.062
82 | GAAGGGAAAG | 1.02 ± 0.012
83 | GAAGGGAGAG | 0.993 ± 0.031
84 | GAAGGGCGCG | 1.029 ± 0.0034
85 | GAAGGGGATT | 1.015 ± 0.01
